The target in assay [1] is T1, rat alpha CGRP (SEQ ID NO: 82) (rat).
T1 construct: also called rat αCGRP; rat α-CGRP
T1 peptide: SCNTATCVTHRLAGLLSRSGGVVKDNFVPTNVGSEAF
The experiment in a line: competition ELISA in solution; free mutein detected on plate-bound biotinylated CGRP. The procedure:
(§1) Binding of lipocalin muteins to alpha and beta CGRP from human and rat in solution was tested in vitro using a competition ELISA assay format (FIG. 1). In this experiment, a constant concentration of non-biotinylated CGRP (0.5 μM) was incubated for 1 h with variable concentrations of lipocalin muteins SEQ ID NO: 2, SEQ ID NO: 3, SEQ ID NO: 4; SEQ ID NO: 5, and SEQ ID NO: 6. After this pre-incubation in solution, an aliquot of the lipocalin mutein/CGRP mixture was transferred to an ELISA plate coated with Neutravidin-captured human alpha CGRP-bio to measure the concentration of lipocalin muteins that was not blocked by non-biotinylated human alpha CGRP (SEQ ID NO: 80) and therefore could still be bound by the immobilized human alpha CGRP-bio (FIG. 1). This procedure was performed on another relevant CGRP species (human beta CGRP (SEQ ID NO: 81), rat alpha CGRP (SEQ ID NO: 82), rat beta CGRP (SEQ ID NO: 83)). All incubation steps were performed with shaking at 300 rpm, and the plate was washed after each incubation step with 80 μL PBS-T buffer (PBS, 0.05% Tween 20) for five times using a Biotek ELx405 select CW washer. In the first step, a 384-well ELISA plate was coated with 20 μL of Neutravidin at a concentration of 5 μg/mL in PBS over night at 4° C. After washing, the plate was blocked with 60 μL PBS-T/BSA (2% BSA in PBS containing 0.05% Tween 20) for 1 h at room temperature.
(§2) To allow for detection and quantification of plate-bound lipocalin muteins, the residual supernatants were discarded and 20 μL HRP-labeled anti-hNGAL antibody was added at a predetermined optimal concentration in PBS-T/BSA and incubated for 1 h at RT. The anti-hNGAL antibody had been obtained by immunization of rabbits with a mixture of muteins, and was subsequently coupled to HRP using a kit (EZ-link Plus Activated Peroxidase, Thermo Scientific) according to the manufacturer's instructions, to obtain the antibody-HRP conjugate. After washing, 20 μl fluorogenic HRP substrate (QuantaBlu, Thermo) was added to each well, and the reaction was allowed to proceed for 15 to 60 minutes. The fluorescence intensity of every well on the plate was read using a fluorescence microplate reader (Tecan or Molecular Devices). To evaluate the data, free mutein concentration, c(mutein)free, was calculated based on the standard curve results, and plotted versus ligand concentration, c(Ligand).
For orientation: In an ELISA, binding on a coated surface is turned into a signal by an enzyme label.

Assay [2] has as its target T2, human beta CGRP (SEQ ID NO: 81) (human, not fully specified).
T2 construct: also called human βCGRP; hβCGRP
T2 peptide: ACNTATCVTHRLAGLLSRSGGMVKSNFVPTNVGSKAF
Described as above. The procedure:
as §1, §2

The target in assay [3] is T3, human alpha CGRP (SEQ ID NO: 80) (human, not fully specified).
T3 construct: also called human αCGRP; hαCGRP
T3 peptide: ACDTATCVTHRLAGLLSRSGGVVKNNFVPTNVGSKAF
Described as above. The procedure:
as §1, §2

In assay [4] the target is T4, rat beta CGRP (SEQ ID NO: 83) (rat, not fully specified).
T4 construct: also called rat βCGRP; rat β-CGRP
T4 peptide: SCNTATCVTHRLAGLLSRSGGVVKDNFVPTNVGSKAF
The description is as above. The procedure: as §1, §2

The target in assay [5] is T1, rat alpha CGRP (SEQ ID NO: 82). Kind of assay: SPR, 37 C, mutein captured, CGRP analyte. In a few lines: (§3)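 Biotinylated lipocalin muteins were captured on streptavidin-oligo CAP chip, and CGRP was injected at 30, 3 and 0.3 nM or at a single 25 nM at 37 °C (180 s association, 5400 s dissociation) in HBS-EP+. Double-referenced sensorgrams were globally fit to a 1:1 model for ka and kd.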
On the technique in general: Surface plasmon resonance follows binding to a sensor surface in real time, without labels.

The target of assay [6] is T2, human beta CGRP (SEQ ID NO: 81). The experiment in a line: SPR, 37 C, mutein captured, CGRP analyte. In a few lines:
as §3

Assay [7] deals with T3, human alpha CGRP (SEQ ID NO: 80). The experiment in a line: SPR, 37 C, mutein captured, CGRP analyte. The essentials:
as §3

In assay [8] the target is T4, rat beta CGRP (SEQ ID NO: 83). Kind of assay: SPR, 37 C, mutein captured, CGRP analyte. The essentials: as §3

B1: lipocalin mutein SEQ ID NO: 2 (designed binder)
chain: QDSTSDLIPAPPLSKVPLQQNFQDNQFHGKWYVVGEAGNWGLREDKDPKKMAATIYELKEDKSYNVTDVQFIEKKCDYWIGTFVPGSQPGEFTLGAIKSEPGQTSNLVRVVSTNYNQHAMVFFKEVWQNRELFWITLYGRTKELTSELKENFIRFSKSLGLPENHIVFPVPIDQCIDGSAWSHPQFEK
B1: the IC50 in assay [1] stood at 35 nM; in assay [2], 46 nM; in assay [3], 55 nM; in assay [4], 47 nM.

B2: lipocalin mutein SEQ ID NO: 5 (designed binder)
chain: QDSTSDLIPAPPLSKVPLQQNFQDNQFHGKWYVVGRAGNAELREDKDPEKMEATIYELKEDKSYNVTDVGFWQKKCIYVIHTFVPGSQPGEFTLGNIKSYPGTTSALVRVVSTNYNQHAMVFFKVVRQNREWFEITLYGRTKELTSELKENFIRFSKSLGLPENHIVFPVPIDQCIDGSAWSHPQFEK
In the case of B2, the IC50 in assay [1] is 21 nM; in assay [2], 28 nM; in assay [3] it was 36 nM; in assay [4], 27 nM.

B3: lipocalin mutein SEQ ID NO: 4 (designed binder)
chain: QDSTSDLIPAPPLSKVPLQQNFQDNQFHGKWYVVGWAGNTLLREDKDPTKMQATIYELKEDKSYNVTWVYFSEKKCNYHIETFVPGSQPGEFTLGTIKSYPGETSILVRVVSTNYNQHAMVFFKGVSQNREIFEITLYGRTKELTSELKENFIRFSKSLGLPENHIVFPVPIDQCIDGSAWSHPQFEK
notes: biotinylated by NHS chemistry for capture in SPR
As for B3, the Kd came out at 5 nM in assay [5], 0.753 nM in assay [6], 1.82 nM in assay [7] and 2.19 nM in assay [8]. Besides, the koff in assay [5] came to 0.00621 s⁻¹; in assay [6], 0.00395 s⁻¹; in assay [7] it was 0.00302 s⁻¹; in assay [8], 0.00365 s⁻¹. The kon in assay [5] is 1.24e+06 M⁻¹ s⁻¹; in assay [6], 5.24e+06 M⁻¹ s⁻¹; in assay [7] it was 1.66e+06 M⁻¹ s⁻¹; in assay [8], 1.66e+06 M⁻¹ s⁻¹. The IC50 in assay [1] was found to be 2.6 nM; in assay [2], 1.8 nM; in assay [3], 2.1 nM; in assay [4] it was 3 nM.

B4: lipocalin mutein SEQ ID NO: 6 (designed binder)
chain: QDSTSDLIPAPPLSKVPLQQNFQDNQFHGKWYVVGIAGNWWLREDKDPLKMYATIYELKEDKSYNVTHVMFMTKKCDYTIRTFVPGSQPGEFTLGNIKSIPGMTSLLVRVVSTNYNQHAMVFFKFVWQNREWFHITLYGRTKELTSELKENFIRFSKSLGLPENHIVFPVPIDQCIDGSAWSHPQFEK
In the case of B4, the half-inhibitory concentration (IC50) turned out to be 0.77 nM in assay [1], 3.1 nM in assay [3] and 1.6 nM in assay [4].

B5: lipocalin mutein SEQ ID NO: 3 (designed binder)
chain: QDSTSDLIPAPPLSKVPLQQNFQDNQFHGKWYVVGFAGNMWLREDKDPFKMGATIYELKEDKSYNVTWVWFEAKKCDYGINTFVPGSQPGEFTLGGIKSPPGMTSHLVRVVSTNYNQHAMVFFKEVFQNREWFWITLYGRTKELTSELKENFIRFSKSLGLPENHIVFPVPIDQCIDGSAWSHPQFEK
As for B5, the IC50 in assay [2] stood at 14 nM; in assay [3], 7.5 nM; in assay [4], 12 nM.

The IC50 is the concentration that gives 50% inhibition. High values mean lower potency, low ones higher potency. For orientation: Kd means a measure of binding affinity in units of concentration. For orientation: koff means the first-order rate constant of dissociation. Low values mean slow dissociation, high ones fast dissociation. For orientation: kon means the second-order rate constant of association.

Values taken from US20190338002A1 (Pieris, published 2019).
